This is an account of results in publication PMC3415985.

What all share (assay): AUC
Test [1] addresses BirA D176A (Escherichia coli) (UniProt P06709).
In test [2] the target is BirA G142A (Escherichia coli) (UniProt P06709).
Test [3] has as its target BirA I280A (Escherichia coli) (UniProt P06709).
Test [4] has as its target BirA K172A (Escherichia coli) (UniProt P06709).

As for “BirA D176A (from UniProt P06709 1-321) (enzyme)”, the Kd (as a rule, the constant that tells how readily two partners part at equilibrium) in test [1] is more than 6 mM.

For the substance “BirA G142A (from UniProt P06709 1-321) (enzyme)”, the Kd in test [2] was more than 17 mM.

In turn, “BirA I280A (from UniProt P06709 1-321) (enzyme)” gave a Kd in test [3] of more than 4 mM.

“BirA K172A (from UniProt P06709 1-321) (enzyme)” showed a Kd in test [4] of more than 0.7 mM.
